According to US20200399364A1 (PHANES THERAPEUTICS, published 2020):
Numbering of substitutions follows the chain as printed. Values belong to the binder of their own block, whether it stands above or below them.

Biological target: T1, human claudin 18.2 (CLDN18.2) (human)
T1 construct: also called claudin 18 variant 2; claudin-18a2.1
Assay: FACS on HEK293-CLDN18.2 stable pool, FITC-based detection

T1 sequence (chain, as listed by the source limits assumed): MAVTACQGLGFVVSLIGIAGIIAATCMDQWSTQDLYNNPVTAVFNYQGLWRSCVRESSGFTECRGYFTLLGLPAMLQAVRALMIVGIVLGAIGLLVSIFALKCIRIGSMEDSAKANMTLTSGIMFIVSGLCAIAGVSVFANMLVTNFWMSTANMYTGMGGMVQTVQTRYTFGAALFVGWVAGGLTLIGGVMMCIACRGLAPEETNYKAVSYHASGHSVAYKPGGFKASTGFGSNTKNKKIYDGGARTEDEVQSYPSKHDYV

- EC50: 9.8 nM
B1: humanized anti-CLDN18.2 mAb 2-C3-H1L1 (antibody, V domains shown)
VH: QVTLRESGPALVKPTQTLTLTCTASGFTFSSYGMSWVRQPPGKALEWVATISGGGSYTYYNPSLKDRFTISRDISANQLVLKVTNMDPADTATYFCARQSRGNAMDYWGQGTTVTVSS
VL: DIQMTQSPSTLSASVGDRVTITCKSSQSLLNSGNQKNYLTWYQQKPGKAPKLLIYWASTRESGVPSRFSGSGSGTAFTLTISSLQPDDFATYYCQNDYSYPLTFGGGTKVEIK
notes: Humanized VH and VL fused to the constant regions of human IgG1 heavy chain and kappa light chain

- EC50: 11.2 nM
B2: humanized anti-CLDN18.2 mAb 6-J11-H1L1 (antibody, V domains shown)
VH: EVQLVESGGGLVQPGGSLRLSCAASGFIFSSFGMHWVRQAPGKGLEWVAYISSGRSTMYYADSVKGRFTISRDNSKNTLYLQMNSLTAEDTAVYYCARGGFYGNSLDYWGQGTLVTVSS
VL: B1 VL with T10S, Q27L, A76D, D87E, Y93S, D97A, G106Q
notes: as for B1

- EC50: 8 nM
B3: humanized anti-CLDN18.2 mAb 2-C3-H2L2 (antibody, V domains shown)
VH: B1 VH with A24F, V37I, V48L, N61L, P62D, A76K, L79V, K82T
VL: B1 VL with A76E
notes: as for B1

- EC50: 8.8 nM
B4: humanized anti-CLDN18.2 mAb 2-C3-H2L1 (antibody, V domains shown)
VH: B1 VH with A24F, V37I, V48L, N61L, P62D, A76K, L79V, K82T
VL: B1 VL
notes: as for B1

- EC50: 11.4 nM
B5: humanized anti-CLDN18.2 mAb 6-J11-H2L1 (antibody, V domains shown)
VH: B2 VH with T87R, A88S
VL: B1 VL with T10S, Q27L, A76D, D87E, Y93S, D97A, G106Q
notes: as for B1

- EC50: 9.1 nM
B6: humanized anti-CLDN18.2 mAb 2-C3-H1L2 (antibody, V domains shown)
VH: B1 VH
VL: B1 VL with A76E
notes: as for B1

- EC50: 59 nM
B7: humanized anti-CLDN18.2 mAb 5-E22-H1L1 (antibody, V domains shown)
VH: QVQLVQSGVEVKKPGASVKVSCKASGYTITDNYMHWVRQAPGQGLEWIGEIYPGSGNTYFNEKFKNRATLTADKSTTTAYMELKSLQFDDTAVYFCARGFPYYAMDYWGQGTTVTVSS
VL: EIVMTQSPATLSLSPGERATLSCHARQNINVWLSWYQQKPGQAPRLLIYKASNLHTGVPARFSGSGSGTDFTLTISSLEPEDFAVYYCQQGQNYPLTFGGGTKVEIK
notes: as for B1

- EC50: 61 nM
B8: humanized anti-CLDN18.2 mAb 5-E22-H1L3 (antibody, V domains shown)
VH: B7 VH
VL: DIVMTQSPLSLPVTPGEPASISCHARQNINVWLSWYLQKPGQSPQLLIYKASNLHTGVPDRFSGSGSGTDFTLKISRVEAEDVGVYYCQQGQNYPLTFGQGTKVEIK
notes: as for B1

- EC50: 19.4 nM
B9: humanized anti-CLDN18.2 mAb 5-E22-H3L2 (antibody, V domains shown)
VH: B7 VH with V9A, F60Y, N61A, T76I, T77S, K84S, S85R, Q87R, F88S, T113L
VL: B7 VL with M4L, V58I
notes: as for B1

- EC50: 12.1 nM
B10: humanized anti-CLDN18.2 mAb 5-E22-H3L1 (antibody, V domains shown)
VH: B7 VH with V9A, F60Y, N61A, T76I, T77S, K84S, S85R, Q87R, F88S, T113L
VL: B7 VL
notes: as for B1

- EC50: 259 nM
B11: humanized anti-CLDN18.2 mAb 5-E22-H1L2 (antibody, V domains shown)
VH: B7 VH
VL: B7 VL with M4L, V58I
notes: as for B1

- EC50: 14.7 nM
B12: humanized anti-CLDN18.2 mAb 5-E22-H3L3 (antibody, V domains shown)
VH: B7 VH with V9A, F60Y, N61A, T76I, T77S, K84S, S85R, Q87R, F88S, T113L
VL: B8 VL
notes: as for B1
